# Entries after “also recorded” stand apart in the source; their conditions may differ.
# T1: FGFR3c (Homo sapiens, UniProt P22607)
# T1 construct: Fc-coupled FGFR ectodomains were immobilized on protein A/G beads; purchased R&D Systems 766FR050
# T1 sequence (P22607 23-375 limits assumed): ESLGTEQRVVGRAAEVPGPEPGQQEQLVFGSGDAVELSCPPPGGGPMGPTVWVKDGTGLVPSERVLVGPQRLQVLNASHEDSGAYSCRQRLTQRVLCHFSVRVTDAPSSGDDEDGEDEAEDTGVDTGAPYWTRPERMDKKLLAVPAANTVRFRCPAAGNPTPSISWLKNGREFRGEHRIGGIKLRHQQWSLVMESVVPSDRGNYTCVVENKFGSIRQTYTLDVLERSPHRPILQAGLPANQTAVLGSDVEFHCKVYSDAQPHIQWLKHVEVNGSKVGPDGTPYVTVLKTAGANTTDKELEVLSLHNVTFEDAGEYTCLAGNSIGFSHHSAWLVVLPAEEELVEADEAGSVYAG
# T2: FGFR1c (Homo sapiens, UniProt P11362)
# T2 construct: Fc-coupled FGFR ectodomains were immobilized on protein A/G beads; purchased R&D Systems 658FR050
# T2 sequence (P11362 22-376 limits assumed): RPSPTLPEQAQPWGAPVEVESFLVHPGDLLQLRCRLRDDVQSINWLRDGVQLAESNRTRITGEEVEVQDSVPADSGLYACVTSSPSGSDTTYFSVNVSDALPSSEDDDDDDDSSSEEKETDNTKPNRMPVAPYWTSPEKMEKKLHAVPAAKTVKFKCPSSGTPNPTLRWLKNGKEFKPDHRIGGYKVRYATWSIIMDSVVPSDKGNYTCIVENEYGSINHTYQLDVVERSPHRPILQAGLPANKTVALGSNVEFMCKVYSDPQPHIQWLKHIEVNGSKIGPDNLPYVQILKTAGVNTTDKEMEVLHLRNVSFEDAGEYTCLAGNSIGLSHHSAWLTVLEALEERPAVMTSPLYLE
# T3: FGFR4 (Homo sapiens, UniProt P22455)
# T3 construct: Fc-FGFR4 protein (human ectodomain) was immobilized; purchased R&D Systems 685FR050
# T3 sequence (P22455 22-369 limits assumed): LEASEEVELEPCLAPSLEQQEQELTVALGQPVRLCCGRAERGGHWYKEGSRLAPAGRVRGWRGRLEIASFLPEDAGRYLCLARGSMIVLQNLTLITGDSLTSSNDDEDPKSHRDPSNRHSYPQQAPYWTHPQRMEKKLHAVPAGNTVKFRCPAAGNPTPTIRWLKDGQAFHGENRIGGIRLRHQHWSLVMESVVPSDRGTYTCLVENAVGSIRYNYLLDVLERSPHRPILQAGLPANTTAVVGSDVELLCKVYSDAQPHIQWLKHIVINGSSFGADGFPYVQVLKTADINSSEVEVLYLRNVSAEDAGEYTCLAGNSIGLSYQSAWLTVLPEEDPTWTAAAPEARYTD
# B1: sKL: recombinant soluble α-klotho ectodomain, mouse aa 35-982 and human aa 34-981, FLAG- or Strep/His-tagged, purified from HEK293 cells (protein)
# chain: EPGDGAQTWARFSRPPAPEAAGLFQGTFPDGFLWAVGSAAYQTEGGWQQHGKGASIWDTFTHHPLAPPGDSRNASLPLGAPSPLQPATGDVASDSYNNVFRDTEALRELGVTHYRFSISWARVLPNGSAGVPNREGLRYYRRLLERLRELGVQPVVTLYHWDLPQRLQDAYGGWANRALADHFRDYAELCFRHFGGQVKYWITIDNPYVVAWHGYATGRLAPGIRGSPRLGYLVAHNLLLAHAKVWHLYNTSFRPTQGGQVSIALSSHWINPRRMTDHSIKECQKSLDFVLGWFAKPVFIDGDYPESMKNNLSSILPDFTESEKKFIKGTADFFALCFGPTLSFQLLDPHMKFRQLESPNLRQLLSWIDLEFNHPQIFIVENGWFVSGTTKRDDAKYMYYLKKFIMETLKAIKLDGVDVIGYTAWSLMDGFEWHRGYSIRRGLFYVDFLSQDKMLLPKSSALFYQKLIEKNGFPPLPENQPLEGTFPCDFAWGVVDNYIQVDTTLSQFTDLNVYLWDVHHSKRLIKVDGVVTKKRKSYCVDFAAIQPQIALLQEMHVTHFRFSLDWALILPLGNQSQVNHTILQYYRCMASELVRVNITPVVALWQPMAPNQGLPRLLARQGAWENPYTALAFAEYARLCFQELGHHVKLWITMNEPYTRNMTYSAGHNLLKAHALAWHVYNEKFRHAQNGKISIALQADWIEPACPFSQKDKEVAERVLEFDIGWLAEPIFGSGDYPWVMRDWLNQRNNFLLPYFTEDEKKLIQGTFDFLALSHYTTILVDSEKEDPIKYNDYLEVQEMTDITWLNSPSQVAVVPWGLRKVLNWLKFKYGDLPMYIISNGIDDGLHAEDDQLRVYYMQNYINEALKAHILDGINLCGYFAYSFNDRTAPRFGLYRYAADQFEPKASMKHYRKIIDSNGFPGPETLERFCPEEFTVCTECSFFHTRKS
# modifications: left off: small tags and cut ends
# notes: recombinant soluble α-klotho ectodomain, mouse aa 35-982 and human aa 34-981, FLAG- or Strep/His-tagged, purified from HEK293 cells
# Experiments:
# Assay in all cases: Pull-down of FLAG-sKL with Fc-tagged FGFR on protein A/G beads, absence of FGF23
# Format in all cases: binding
# FGFR3c = target: T1, FGFR3c
# Description: (§1) To study the interaction between Fc-tagged FGFR isoforms (Fc-FGFR), FGF isoforms, and sKL, immunoprecipitation studies were conducted. Protein A beads (6501, BioVision) and protein G beads (6511, BioVision) were used at 25 μl of a 50% stock slurry per sample in a total bead volume of 50 μl. Beads were washed 5× in activity buffer (50 mM Tris [pH 7.4], 200 mM NaCl, 0.01% Tween 20). Bead spin-down assays were all performed for 2 minutes at 5000 g. Beads were resuspended in 1 ml of activity buffer in a 1.5-ml snap cap tube. One microgram of Fc-FGFR1 to 4 was incubated with the beads for 1 hour on a bead rotator. Control samples were incubated with 2 μg of anti-FGF antibody instead of Fc-FGFR. Beads were then pelleted at 5000 g for 2 minutes and washed 5× with activity buffer. Beads were resuspended and incubated with different combinations of 500 ng of FGF, 1 μg of sKL, 1.6 United States Pharmacopeia (USP) units of heparin, or phosphate-buffered saline (PBS). Beads were incubated for 1 hour on a tube rotator, and beads were pelleted and washed as before. One hundred microliters of 1× Laemmli sample buffer (1610737, Bio-Rad) with 1.42 M 2-mercaptoethanol was added, and samples were boiled for 5 minutes. Samples were analyzed using SDS-PAGE and Western blotting.
# (§2) The sample (20 μl) was loaded onto Mini-PROTEAN TGX Precast Gel 4-20% for experiments with <9 samples (4568094, Bio-Rad) or Criterion TGX Precast Gel 4-20% (5678094, Bio-Rad) for experiments with >9 samples. Gels were run in 1× Tris/Glycine/SDS buffer (1610732, Bio-Rad) at 150 V and stopped when the sample dye reached the end of the gel. Gels were removed and electrotransferred via a semi-dry cassette (1703940, Bio-Rad) in I× Tris/Glycine buffer (1610734, Bio-Rad) with 20% methanol. Gels were transferred onto polyvinylidene diflouride membranes (IPVH00010, Millipore) at 20 V for 1 hour. Membranes were then blocked in 5% dried milk with 0.5% Tween 20 diluted in Tris-buffered saline (TBST; pH 7.5) for 1 hour and probed with antibodies against specific antigens at 1:1000 in TBST with 5% dried milk. Blots were washed 3× for 5 minutes in TBST and probed with HRP-coupled secondary antibodies against specific species at 1:10,000 in TBST with 5% dried milk. Membranes were imaged on the SRX-101A X-ray film developer (Konica Minolta).
# FGFR1c = target: T2, FGFR1c
# Description: as §1, §2
# FGFR4 = target: T3, FGFR4; conditions: listed as FLAG-sKL
# Description: as §1, §2
molecule,measurement,setting,value
B1,sKL binding to FGFR3c,FGFR3c,no sKL binding
same,co-precipitation of FLAG-sKL with FGFR1c,FGFR1c,could be co-precipitated with FGFR1c
same,co-precipitation of FLAG-sKL with FGFR4,FGFR4,to a lower extent with FGFR4; also recorded: bound to FGFR4 and to a lower extent to FGFR4
